This is an account of results in patent publication US20250121082A1 (SHANDONG BOAN BIOTECHNOLOGY, published 2025).

Where a chain is given by its changes, count along the chain named.

Test [1] addresses T1, Human CD228 protein (human, UniProt P08582 20-708, limits assumed).
T1 construct: Recombinant protein made in CHO cells, purified over a Ni column; The printed entry begins with the leader (MRGPSG...) and ends with ten His; also called hCD228; CD228-His protein
T1 sequence: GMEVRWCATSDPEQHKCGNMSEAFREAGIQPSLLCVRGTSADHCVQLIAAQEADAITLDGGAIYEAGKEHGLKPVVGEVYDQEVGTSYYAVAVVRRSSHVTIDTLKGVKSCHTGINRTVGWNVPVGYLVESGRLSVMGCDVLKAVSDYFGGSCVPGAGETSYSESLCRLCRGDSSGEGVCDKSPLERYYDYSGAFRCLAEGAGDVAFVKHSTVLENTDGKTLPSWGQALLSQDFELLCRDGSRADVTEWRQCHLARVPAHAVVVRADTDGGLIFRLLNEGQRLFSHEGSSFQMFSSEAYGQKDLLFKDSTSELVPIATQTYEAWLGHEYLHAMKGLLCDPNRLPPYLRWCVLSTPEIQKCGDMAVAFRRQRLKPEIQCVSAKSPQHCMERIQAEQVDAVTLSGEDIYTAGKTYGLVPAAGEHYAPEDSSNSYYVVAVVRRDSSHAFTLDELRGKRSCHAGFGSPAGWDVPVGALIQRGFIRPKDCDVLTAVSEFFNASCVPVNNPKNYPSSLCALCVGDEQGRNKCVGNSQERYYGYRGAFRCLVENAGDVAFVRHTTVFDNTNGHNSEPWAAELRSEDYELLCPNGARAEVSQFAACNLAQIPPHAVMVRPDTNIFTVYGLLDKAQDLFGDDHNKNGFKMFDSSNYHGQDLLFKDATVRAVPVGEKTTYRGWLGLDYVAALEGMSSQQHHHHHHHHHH
The test can be described thus: Octet competition on His-chip CD228; competitor: CA67. As for the experimental part: CD228 proteins were immobilized on His chips at 10 μg/mL with a threshold of 0.5 nm. The first CD228 antibody (30 μg/mL) was immobilized, and the competitive binding of the second CD228 antibody (30 μg/mL) was analyzed. The Octet 8K system was used to analyze the response of antibody 2 and to determine whether antibody 1 and antibody 2 were in competition.
(In general: Biolayer interferometry detects binding as a change in optical thickness at a sensor tip.)

For test [2], the target named is T1, Human CD228 protein. Briefly: ELISA, plate coated with human CD228 protein. As for the experimental part:
Human CD228 protein (prepared by Boan, 20201014, SEQ ID NO: 41) was diluted to 0.1 μg/mL with a carbonate-buffered saline (hereinafter referred to as CBS) at pH 9.6. Microplates were coated with the protein at 100 μL/well, and incubated at 4° C. overnight. After washing, the microplates were blocked with skimmed milk powder. The plates were washed, before antibodies diluted with PBST (phosphate-buffered saline, Solarbio P1010, +0.05% Tween20) were added at 100 μL/well. The diluted antibodies were intact antibodies comprising Fc, Fab and the constant region serially 3-fold diluted from 0.1 μg/mL to 8 concentrations with PBST. After washing the plates, goat anti-human IgG (H+L)/HRP (diluted at 1:5000, KPL, 474-1006) was added at 100 μL/well, and the plates were incubated at 37° C. for 1 h. After washing the plates, TMB (Beijing Makewonderbio, 1001) was added at 100 μL/well for chromogenesis, and after 10 min, 50 μL of 2 M H₂SO₄ was added to stop the chromogenesis. OD450 was measured on a microplate reader. The antibody hL49 targeting CD228 from Seagen was used as a reference antibody in this study and the following studies.
On the technique in general: An ELISA detects its analyte on a solid surface through an enzyme-linked reagent.

The target in test [3] is T1, Human CD228 protein. Briefly: affinity assay (method not given).

B1: BA352 (antibody, human IgG1, kappa, V domains shown)
VH: EVQLVESGGGVVQPGRSLRLSCAASGFTFSSYAMHWVRQAPGKGLEWVAVISYDGSNKYYADSVKGRFTISRDNSKNTLYLQMNSLRAEDTAVYYCARGPYLAAAGTALTFDIWGQGTMVTVSS
VL: DIQMTQSPSAMSASVGDRVTITCRASQGINNYLAWFQQKPGKVPKRLIYAASSLQSGVPSRFSGSGSGTEFTLTISSLQPEDFATYYCLQHNSYPFTFGPGTKVDIKR
notes: Intact IgG1
As to B1, in test [1], the Octet response value turned out to be 0.443. The EC50 in test [2] was 6.1 ng/mL.

B2: CA149 (antibody, human IgG1, kappa, V domains shown)
VH: EVQLVESGGGVVQPGRSLRLSCAASGFTFSSYAMHWVRQAPGKGLEWVAVISFDGSNKYYTDSVKGRFTISRDNSKNTLYLQMNSLRAEDTAVYYCAREVPYYYGSGPFDYWGQGTLVTVSS
VL: EIVLTQSPATLSVSPGERATLSCRASQSVSSNLAWYQQKPGQAPRHLIDGASSRASGIPDRFSGSGSGTDFTLTISRLEPEDFAVYYCQQYGSSPPFTFGPGTKVDIKR
notes: Intact IgG1; also called CA149 antibody
B2 had an Octet response value in test [1] of 0.0087. Binding in test [3] was put at a Kd of 1.99 nM. In test [2], a half-maximal response (EC50) required 3.6 ng/mL.

B3: CA185 (antibody, human IgG1, kappa, V domains shown)
VH: B2 VH with F53Y, T61A
VL: EIVLTQSPGTLSLSPGERATLSCRASQSVSSSSLAWYQQKPGQAPRHLIDGASSRASGIPDRFSGSGSGTDFTLTISRLEPEDFAVYYCQQYGSSYTFGQGTKVDIKR
notes: Intact IgG1
Regarding B3, the Octet response value in test [1] was 0.0028. This molecule also came in with an EC50 in test [2] of 3.9 ng/mL.

B4: CA13 (antibody, human IgG1, kappa, V domains shown)
VH: EVQLVESGGGVVQPGRSLRLSCAASGFTFSSYAMHWVRQAPGKGLEWVAVISYDGSNKYYADSVKGRFTISRDNSKNTLFLQMNSLRAEDTAVYYCARDVYHYGSRSPYYYGMDVWGQGTTVTVSS
VL: DIVMTQSPSSLSASVGDRVTITCRASQGISNYLAWFQQKPGKVPKLLIYAASTLQSGVPSRFSGSGSGTDFTLTISSLQPEDVATYYCQKYNSAPFTFGPGTKVDIKR
notes: Intact IgG1 from fully human antibody-transgenic mice
In test [1], B4 registered an Octet response value of -0.0021. Further, the EC50 in test [2] amounted to 3.2 ng/mL.

B5: CA67 (antibody, human IgG1, kappa, V domains shown)
VH: B4 VH with F80Y
VL: B4 VL with V3Q, G28A, F36Y, Q55H, S56P
notes: Intact IgG1
With B5, the Octet response value in test [1] is -0.007. The same molecule yielded an EC50 in test [2] of 3.8 ng/mL.

B6: CA518 (antibody, human IgG1, kappa, V domains shown)
VH: B4 VH with Y60H, A97V
VL: B4 VL with V3Q, L11V, N31S, Y32W, F36Y, V43A, T53S
notes: Intact IgG1
In the case of B6, the Octet response value in test [1] was 0.0039. This molecule also came in with an EC50 in test [2] of 4.3 ng/mL.

B7: reference antibody hL49 (antibody, human IgG1, kappa, V domains shown)
VH: QVQLQESGPGLVKPSETLSLTCTVSGDSITSGYWNWIRQPPGKGLEYIGYISDSGITYYNPSLKSRVTISRDTSKNQYSLKLSSVTAADTAVYYCARRTLATYYAMDYWGQGTLVTVSS
VL: DFVMTQSPLSLPVTLGQPASISCRASQSLVHSDGNTYLHWYQQRPGQSPRLLIYRVSNRFSGVPDRFSGSGSGTDFTLKISRVEAEDVGVYYCSQSTHVPPTFGQGTKLEIKR
notes: also called H149; hL49 analogy
In turn, B7 yielded an Octet response value in test [1] of 0.456. The molecule also had an EC50 in test [2] of 27.8 ng/mL.

The EC50 is the concentration needed to bring the measured effect to its halfway point. A higher EC50 goes with a need for much substance. For orientation: Kd means a measure of binding affinity in units of concentration. Read a low Kd as a tighter complex.
